The results in this text go back to patent US20050222029A1 (MYRIAD GENETICS, published 2005).

Assay in all cases: yeast two-hybrid
Test [1] has as its target T1, Apolipoprotein A-I (APOA1) 106-267 (human, UniProt P02647 106-267).
T1 construct: bait (Gal4 DBD fusion)

The target in test [2] is T2, upstream of N-ras, alt. transcript (798) (UNR) 110-528 (human, UniProt O75534 110-528).
T2 construct: prey (Gal4 AD-HA fusion)
T2 sequence (looked up): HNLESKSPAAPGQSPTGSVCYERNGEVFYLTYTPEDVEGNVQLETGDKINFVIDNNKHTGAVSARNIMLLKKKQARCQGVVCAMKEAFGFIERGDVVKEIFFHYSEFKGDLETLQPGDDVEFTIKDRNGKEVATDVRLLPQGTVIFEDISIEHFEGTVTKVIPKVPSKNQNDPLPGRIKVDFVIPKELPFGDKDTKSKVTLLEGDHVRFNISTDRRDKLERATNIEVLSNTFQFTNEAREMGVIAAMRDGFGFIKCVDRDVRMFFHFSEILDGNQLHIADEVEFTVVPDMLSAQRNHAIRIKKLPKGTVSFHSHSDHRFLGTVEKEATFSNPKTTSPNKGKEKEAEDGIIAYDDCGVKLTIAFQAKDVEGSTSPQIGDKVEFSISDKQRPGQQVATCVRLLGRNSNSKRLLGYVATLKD

The next test addresses T3, VPS28 protein 9-211 (human, UniProt Q9UK41 9-211).
T3 construct: prey (Gal4 AD-HA fusion); also called vacuolar protein sorting 28
T3 sequence (looked up): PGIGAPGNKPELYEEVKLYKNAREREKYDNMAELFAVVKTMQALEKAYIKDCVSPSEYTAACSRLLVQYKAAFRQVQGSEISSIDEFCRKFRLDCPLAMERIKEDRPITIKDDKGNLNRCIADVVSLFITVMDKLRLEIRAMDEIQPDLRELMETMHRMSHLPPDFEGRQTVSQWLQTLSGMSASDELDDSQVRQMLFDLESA

The target in test [3] is T4, Cytoplasmic linker 2 (CYLN2) 607-947 (human, UniProt Q9UDT6 607-947).
T4 construct: prey (Gal4 AD-HA fusion)
T4 sequence (looked up): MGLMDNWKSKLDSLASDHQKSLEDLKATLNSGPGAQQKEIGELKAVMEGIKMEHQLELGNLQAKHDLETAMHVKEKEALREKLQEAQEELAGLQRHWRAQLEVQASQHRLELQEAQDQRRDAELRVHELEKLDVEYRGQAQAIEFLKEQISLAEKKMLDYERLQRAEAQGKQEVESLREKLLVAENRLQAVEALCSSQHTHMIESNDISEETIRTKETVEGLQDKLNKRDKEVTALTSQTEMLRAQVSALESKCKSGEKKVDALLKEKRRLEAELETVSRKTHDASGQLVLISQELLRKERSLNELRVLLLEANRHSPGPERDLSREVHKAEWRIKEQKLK

Test [4] has as its target T5, Golgi autoantigen (Golgin-84) 198-501 (human, UniProt Q8TBA6 198-501).
T5 construct: prey (Gal4 AD-HA fusion)
T5 sequence (looked up): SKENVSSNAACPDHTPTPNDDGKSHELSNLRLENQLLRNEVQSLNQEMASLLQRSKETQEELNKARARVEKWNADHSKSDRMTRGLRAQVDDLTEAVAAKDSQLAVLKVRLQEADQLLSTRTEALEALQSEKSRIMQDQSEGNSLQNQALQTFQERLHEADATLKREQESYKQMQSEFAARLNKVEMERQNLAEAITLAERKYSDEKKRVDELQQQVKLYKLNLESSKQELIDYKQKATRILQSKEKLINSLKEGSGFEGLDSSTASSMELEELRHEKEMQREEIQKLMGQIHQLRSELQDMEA

The target in test [5] is T6, Catenin, alpha 2 (A2-CAT) 1-166 (human, UniProt P26232 1-166).
T6 construct: prey (Gal4 AD-HA fusion)
T6 sequence (looked up): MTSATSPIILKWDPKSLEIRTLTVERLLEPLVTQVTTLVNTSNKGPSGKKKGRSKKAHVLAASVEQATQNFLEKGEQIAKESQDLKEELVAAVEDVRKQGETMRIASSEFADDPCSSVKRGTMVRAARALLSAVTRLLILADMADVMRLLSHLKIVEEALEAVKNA

For test [6], the target named is T7, Catenin, alpha 2 (A2-CAT) 55-487 (human, UniProt P26232 55-487).
T7 construct: prey (Gal4 AD-HA fusion)
T7 sequence (looked up): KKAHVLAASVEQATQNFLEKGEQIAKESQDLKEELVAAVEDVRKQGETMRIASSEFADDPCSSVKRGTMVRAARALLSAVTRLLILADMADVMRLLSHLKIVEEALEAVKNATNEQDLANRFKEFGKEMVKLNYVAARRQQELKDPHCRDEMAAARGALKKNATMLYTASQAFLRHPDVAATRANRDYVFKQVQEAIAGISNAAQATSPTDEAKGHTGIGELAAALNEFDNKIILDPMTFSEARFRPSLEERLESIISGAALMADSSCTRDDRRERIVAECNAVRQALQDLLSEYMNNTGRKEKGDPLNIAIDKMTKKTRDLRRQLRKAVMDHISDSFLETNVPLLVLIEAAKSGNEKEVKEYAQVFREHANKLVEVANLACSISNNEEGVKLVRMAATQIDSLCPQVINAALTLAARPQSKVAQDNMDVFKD

Test [7] concerns the target T8, golgi autoantigen, golgin subfamily a, 5 (Golgin-84) 609-731 (human, UniProt Q8TBA6 609-731).
T8 construct: prey (Gal4 AD-HA fusion)
T8 sequence (looked up): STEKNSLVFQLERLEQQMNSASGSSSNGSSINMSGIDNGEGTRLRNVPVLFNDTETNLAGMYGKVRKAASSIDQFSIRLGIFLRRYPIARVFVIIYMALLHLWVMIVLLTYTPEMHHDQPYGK

Another test concerns the target T9, PIBF1 392-758 (human, UniProt Q8WXW3 392-757).
T9 construct: prey (Gal4 AD-HA fusion)
T9 sequence (looked up): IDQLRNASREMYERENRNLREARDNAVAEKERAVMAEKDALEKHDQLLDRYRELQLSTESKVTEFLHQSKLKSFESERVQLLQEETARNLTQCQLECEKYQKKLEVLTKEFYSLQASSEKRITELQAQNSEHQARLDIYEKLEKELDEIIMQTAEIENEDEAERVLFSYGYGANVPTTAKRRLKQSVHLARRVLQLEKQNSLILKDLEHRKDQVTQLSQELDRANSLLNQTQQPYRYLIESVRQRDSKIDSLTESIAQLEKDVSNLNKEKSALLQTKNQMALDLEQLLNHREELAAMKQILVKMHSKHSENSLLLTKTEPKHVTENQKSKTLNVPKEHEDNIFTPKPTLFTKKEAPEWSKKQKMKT

The target of the next test is T10, VPS28 protein 10-221 (human, UniProt Q9UK41 10-221).
T10 construct: prey (Gal4 AD-HA fusion); also called vacuolar protein sorting 28
T10 sequence (looked up): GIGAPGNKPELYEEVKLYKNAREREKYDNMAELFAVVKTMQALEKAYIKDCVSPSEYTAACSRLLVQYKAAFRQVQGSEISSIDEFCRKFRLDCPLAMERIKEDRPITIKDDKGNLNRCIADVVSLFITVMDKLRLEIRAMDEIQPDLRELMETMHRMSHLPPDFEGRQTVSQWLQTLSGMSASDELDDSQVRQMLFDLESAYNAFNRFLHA

Test [8] has as its target T11, Protein kinase C and casein kinase substrate (PACSIN2) 174-367 (human, UniProt Q9UNF0 174-367).
T11 construct: prey (Gal4 AD-HA fusion)
T11 sequence (looked up): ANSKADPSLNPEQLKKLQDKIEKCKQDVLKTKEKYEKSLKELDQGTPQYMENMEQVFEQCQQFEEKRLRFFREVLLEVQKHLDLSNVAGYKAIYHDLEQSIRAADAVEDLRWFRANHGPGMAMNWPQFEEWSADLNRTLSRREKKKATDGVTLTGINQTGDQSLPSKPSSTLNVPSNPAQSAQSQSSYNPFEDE

In test [9] the target is T12, tetratricopeptide repeat domain 3 (TPRD) 1058-1189 (human, UniProt P53804 1058-1189).
T12 construct: prey (Gal4 AD-HA fusion)
T12 sequence (looked up): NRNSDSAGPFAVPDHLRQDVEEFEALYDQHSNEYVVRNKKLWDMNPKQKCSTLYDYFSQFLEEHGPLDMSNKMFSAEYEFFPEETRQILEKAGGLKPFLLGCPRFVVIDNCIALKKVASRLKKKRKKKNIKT

Test [10] concerns the target T13, intracellular chloride channel protein (CLIC1) 98-210 (human, UniProt O00299 98-210).
T13 construct: range 98-210; prey (Gal4 AD-HA fusion); also called NCC27

Test [11] addresses T14, intracellular chloride channel protein (CLIC1) 51-210 (human, UniProt O00299 51-210).
T14 construct: range 51-210; prey (Gal4 AD-HA fusion); also called NCC27

Test [12] concerns the target T15, Charcot-Leyden crystal protein; periplakin (PPL) 1548-1756 (human, UniProt O60437 1548-1756).
T15 construct: prey (Gal4 AD-HA fusion)
T15 sequence (looked up): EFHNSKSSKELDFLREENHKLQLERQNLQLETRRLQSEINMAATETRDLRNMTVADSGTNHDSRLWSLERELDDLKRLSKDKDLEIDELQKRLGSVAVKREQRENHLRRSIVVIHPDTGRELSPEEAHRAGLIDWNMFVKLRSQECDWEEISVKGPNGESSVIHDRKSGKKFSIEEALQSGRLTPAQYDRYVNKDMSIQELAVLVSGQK

In test [13] the target is T16, Chromosome-associated polypeptide HCAP (HCAP) 119-353 (human, UniProt Q9UQE7 119-353).
T16 construct: prey (Gal4 AD-HA fusion)
T16 sequence (Q9UQE7 119-353 limits assumed): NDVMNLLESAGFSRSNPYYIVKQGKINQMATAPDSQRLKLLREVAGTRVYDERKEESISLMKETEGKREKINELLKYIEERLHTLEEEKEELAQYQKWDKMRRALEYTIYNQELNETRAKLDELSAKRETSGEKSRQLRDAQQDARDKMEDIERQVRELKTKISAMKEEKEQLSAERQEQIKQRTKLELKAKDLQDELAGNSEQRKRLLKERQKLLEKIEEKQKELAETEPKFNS

T1 sequence (P02647 106-267 limits assumed, form in doubt): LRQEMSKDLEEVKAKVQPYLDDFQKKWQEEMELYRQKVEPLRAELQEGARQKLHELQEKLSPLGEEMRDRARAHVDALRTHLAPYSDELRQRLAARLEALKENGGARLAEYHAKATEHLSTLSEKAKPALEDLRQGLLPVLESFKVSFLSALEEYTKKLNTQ

B1: syntaxin 2 (STX2) 156-261 (other, human, UniProt P32856 156-261, looked up)
chain: GRTTTDDELEEMLESGKPSIFTSDIISDSQITRQALNEIESRHKDIMKLETSIRELHEMFMDMAMFVETQGEMINNIERNVMNATDYVEHAKEETKKAIKYQSKAR
B1: in [1], the binding result is given as “binds”.

B2: ribosomal protein S6 kinase, 90 kDa, polypeptide 1 (p90RSK) 418-467 (enzyme, human, UniProt Q15418 418-467, looked up)
chain: YVVKETIGVGSYSECKRCVHKATNMEYAVKVIDKSKRDPSEEIEILLRYG
notes: range 418-467; bait (Gal4 DBD fusion); also called HU1
Consider B2, for which the binding result in test [2] was “binds”.

B3: Tumor Suppressor (TSG101) 231-391 (other, human, UniProt Q99816 231-390, looked up)
chain: ISAVSDKLRWRMKEEMDRAQAELNALKRTEEDLKKGHQKLEEMVTRLDQEVAEVDKNIELLKKKDEELSSALEKMENQSENNDIDEVIIPTAPLYKQILNLYAEENAIEDTIFYLGEALRRGVIDLDVFLKHVRLLSRKQFQLRALMQKARKTAGLSDLY
notes: bait (Gal4 DBD fusion)
Take B3: the binding result (in the test with VPS28 protein 9-211; in [3]; in [4]) was “binds” in each case.

B4: Survivin (BIRC5) 52-143 (other, human, UniProt O15392 52-142, looked up)
chain: PDLAQCFFCFKELEGWEPDDDPIEEHKKHSSGCAFLSVKKQFEELTLGEFLKLDRERAKNKIAKETNNKKKEFEETAKKVRRAIEQLAAMD
notes: range 52-143; bait (Gal4 DBD fusion); also called API4
Take B4: the binding result in test [5] and in [6] was “binds” throughout.

B5: v-akt murine thymoma viral oncogene homolog 1 (AKT1) 1-118 (enzyme, human, UniProt P31749 1-118, looked up)
chain: MSDVAIVKEGWLHKRGEYIKTWRPRYFLLKNDGTFIGYKERPQDVDQREAPLNNFSVAQCQLMKTERPRPNTFIIRCLQWTTVIERTFHVETPEEREEWTTAIQTVADGLKKQEEEEM
notes: bait (Gal4 DBD fusion)
Turning to B5, in test [7], the binding result is recorded as “binds”.

B6: Tumor Suppressor (TSG101) 12-326 (other, human, UniProt Q99816 12-326, looked up)
chain: VSKYKYRDLTVRETVNVITLYKDLKPVLDSYVFNDGSSRELMNLTGTIPVPYRGNTYNIPICLWLLDTYPYNPPICFVKPTSSMTIKTGKHVDANGKIYLPYLHEWKHPQSDLLGLIQVMIVVFGDEPPVFSRPISASYPPYQATGPPNTSYMPGMPGGISPYPSGYPPNPSGYPGCPYPPGGPYPATTSSQYPSQPPVTTVGPSRDGTISEDTIRASLISAVSDKLRWRMKEEMDRAQAELNALKRTEEDLKKGHQKLEEMVTRLDQEVAEVDKNIELLKKKDEELSSALEKMENQSENNDIDEVIIPTAPLYK
notes: bait (Gal4 DBD fusion)
Turning to B6, the binding result in the test with PIBF1 392-758 is on record as “binds”.

B7: Tumor Suppressor (TSG101) 265-391 (other, human, UniProt Q99816 265-390, looked up)
chain: KGHQKLEEMVTRLDQEVAEVDKNIELLKKKDEELSSALEKMENQSENNDIDEVIIPTAPLYKQILNLYAEENAIEDTIFYLGEALRRGVIDLDVFLKHVRLLSRKQFQLRALMQKARKTAGLSDLY
notes: range 265-391; bait (Gal4 DBD fusion); also called TSG101 265-390
As to B7, the binding result (with VPS28 protein 10-221; in test [8]) was “binds” throughout.

B8: v-akt murine thymoma viral oncogene homolog 2 (AKT2) 1-108 (enzyme, human, UniProt P31751 1-108, looked up)
chain: MNEVSVIKEGWLHKRGEYIKTWRPRYFLLKSDGSFIGYKERPEAPDQTLPPLNNFSVAECQLMKTERPRPNTFVIRCLQWTTVIERTFHVDSPDEREEWMRAIQMVAN
notes: bait (Gal4 DBD fusion)
Consider B8, for which the binding result in test [9], in test [10] and in test [11] was “binds” each time.

B9: v-akt murine thymoma viral oncogene homolog 1 (AKT1) 1-109 (enzyme, human, UniProt P31749 1-109, looked up)
chain: MSDVAIVKEGWLHKRGEYIKTWRPRYFLLKNDGTFIGYKERPQDVDQREAPLNNFSVAQCQLMKTERPRPNTFIIRCLQWTTVIERTFHVETPEEREEWTTAIQTVADG
notes: bait (Gal4 DBD fusion)
For B9, the binding result in test [12] was “binds”.

B10: Tumor Suppressor (TSG101) 264-391 (other, human, UniProt Q99816 264-390, looked up)
chain: KKGHQKLEEMVTRLDQEVAEVDKNIELLKKKDEELSSALEKMENQSENNDIDEVIIPTAPLYKQILNLYAEENAIEDTIFYLGEALRRGVIDLDVFLKHVRLLSRKQFQLRALMQKARKTAGLSDLY
notes: range 264-391; bait (Gal4 DBD fusion)
As for B10, the binding result in [13] was “binds”.
